These results are taken from patent US20210121565A1 (Eli Lilly, published 2021).

For assay [1], the target named is T1, human tau aggregates (amino acid sequence of SEQ ID NO.13) (human, UniProt P10636 2-758).
T1 construct: also called fibril tau; tau fibril aggregate
The assay is described as follows: SPR (Biacore 2000, 25 C), antibody captured on protein A, tau aggregate as analyte, 1:1 fit. Here is the method:
(§1) Surface Plasmon Resonance (SPR) assay, measured with a BIACORE® 2000 instrument (primed with HBS-EP+running buffer (GE Healthcare, 10 mM Hepes pH7.4+150 mM NaCl+3 mM EDTA+0.05% surfactant P20) at 25° C.), is used to measure binding of an exemplified anti-Tau antibody (having both HCs of SEQ ID NO.2 and both LCs of SEQ ID NO.1) to both human monomeric (e.g., native or non-aggregate) tau and human tau aggregates (both having the amino acid sequence as set forth in SEQ ID NO.13).
(§2) Except as noted, all reagents and materials are from BIACORE® AB (Upsala, Sweden). A CMS chip containing immobilized protein A (generated using standard NHS-EDC amine coupling) on all four flow cells (FC) is used to employ a capture methodology. Antibody samples are prepared at 0.5 μg/mL by dilution into running buffer. […]
(§3) Data of binding to tau aggregate is processed using standard double-referencing and fit to a 1:1 binding model using Biacore 2000 Evaluation software, version 4.1, to determine the association rate (kₒₙ, M⁻¹s⁻¹ units), dissociation rate (koff, s⁻¹ units), and Rₘₐₓ (RU units). The equilibrium dissociation constant (KD) was calculated from the relationship KD=koff/kₒₙ, and is in molar units. Data of binding to monomeric tau cannot be determined accurately by SPR as described above due to rapid on- and off-rates. […]
Background: SPR reads the build-up and loss of mass on a sensor chip optically.

The target of assay [2] is T2, aggregate tau fibrils purified from AD brain homogenates (MC1-affinity purified) (human, UniProt P10636-8 2-441, limits assumed).
T2 construct: Brain-derived material coated on ELISA plates at 0.7 ug/ml total tau; also called Purified AD Tau Fibrils; purified tau fibrils
T2 sequence (P10636 other isoform, or with tags, fused parts or gaps limits assumed): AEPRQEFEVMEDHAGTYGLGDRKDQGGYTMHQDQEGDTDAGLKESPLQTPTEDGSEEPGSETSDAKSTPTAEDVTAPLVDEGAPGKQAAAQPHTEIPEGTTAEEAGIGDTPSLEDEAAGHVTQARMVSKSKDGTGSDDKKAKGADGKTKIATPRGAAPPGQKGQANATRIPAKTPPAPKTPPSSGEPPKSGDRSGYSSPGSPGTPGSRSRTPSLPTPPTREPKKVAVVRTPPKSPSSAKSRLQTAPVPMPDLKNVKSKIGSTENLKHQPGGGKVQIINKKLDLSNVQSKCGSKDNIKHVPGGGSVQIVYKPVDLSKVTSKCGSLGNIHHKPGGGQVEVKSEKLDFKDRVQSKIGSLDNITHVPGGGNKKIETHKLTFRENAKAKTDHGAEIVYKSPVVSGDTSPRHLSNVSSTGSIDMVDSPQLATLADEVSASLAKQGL
The assay is described as follows: ELISA, purified AD tau fibrils coated on plate, anti-human IgG-HRP detection. As for the experimental part: Enzyme-Linked Immunosorbant Assay (ELISA) is used to determine relative binding affinity of the exemplified anti-Tau antibody (having both HCs of SEQ ID NO.2 and both LCs of SEQ ID NO.1) to aggregate tau fibrils from AD brain homogenates. AD brain homogenates are prepared from approx. 80 g of cortex from brain of AD patients. Briefly, buffer (TBS/1 mM PMSF/1× Complete® protease inhibitor cocktail (Roche, p/n. 11 697 498 001) and phosphatase inhibitor (ThermoFischer, p/n. 78428)) is added to the AD brain tissue at about 10 ml/1 g (tissue). Tissue is homogenized using a handheld Kinematica Polytron at speed 6-7. Tissue is then further homogenized using Parr Bomb (Parr Instrument, p/n. 4653) at 1500 psi of nitrogen for 30 mins. Homogenate is spun at 28,000 g (J14 Beckman rotor) for 30 min at 4° C. Supernatant is collected, pooled and run over a 4 cm high guard column of Sepharose 400 Superflow to remove larger debris, then run over 25 ml MC1-Affigel 10 column at a flow rate of 50-60 ml per hour, in order to purify MC1-binding tau fibrils. To maximize the recovery of purification, supernatants are recycled through MC-1 column over 18-20 hours at 4° C. […] The concentration of tau within the tau fibrils purified from AD brain homogenate is measured by sandwich ELISA using DA-9 capture antibody and CP27 detection antibody. […]
(In general: An ELISA detects its analyte on a solid surface through an enzyme-linked reagent.)

Assay [3] addresses T3, human monomeric (native or non-aggregate) tau (human, UniProt P10636 2-758).
T3 construct: No tag or expression host is stated; also called Monomeric Tau; monomeric tau
The assay is described as follows: SPR (Biacore 2000, 25 C), antibody captured on protein A, tau as analyte, steady state fit. Here is the method: as §1, §2, §3

Assay [4] addresses T1, human tau aggregates (amino acid …). The assay is described as follows: SPR (Biacore 2000, 25 C), antibody captured on protein A, tau aggregate as analyte, KD=koff/kon, not normalized for avidity. Here is the method: as §1, §2, §3

T1 sequence (P10636 other isoform, or with tags, fused parts or gaps limits assumed): as above
T3 sequence (P10636 other isoform, or with tags, fused parts or gaps limits assumed): as above

B1: Exemplified anti-Tau antibody (having both HCs of SEQ ID NO.2 and both LCs of SEQ ID NO.1) (antibody, human IgG4 S228P, kappa, F234A L235A, V domains shown)
VH: EVQLVQSGAEVKKPGESLKISCKGSGYTFSNYWIEWVRQMPGKGLEWMGEILPGSDSIKYEKNFKGQVTISADKSISTAYLQWSSLKASDTAMYYCARRGNYVDDWGQGTLVTVSS
VL: EIVLTQSPGTLSLSPGERATLSCRSSQSLVHSNQNTYLHWYQQKPGQAPRLLIYKVDNRFSGIPDRFSGSGSGTDFTLTISRLEPEDFAVYYCSQSTLVPLTFGGGTKVEIKR
notes: It was expressed in CHO cells; also called Exemplified anti-Tau mAb; exemplified tau monoclonal antibody
As a reminder, the koff is the rate constant with which the complex falls apart. The kon is the rate constant with which the complex forms. Broadly, the EC50 is the concentration that produces a half-maximal response. With B1, in assay [1], the koff was < 1e-05 s⁻¹ and the kon was 45900 M⁻¹ s⁻¹. In addition, in assay [2], the EC50 came to 0.0068 nM. Also, the Kd in assay [3] worked out at 235 nM. Besides, in assay [4], the Kd was < 0.22 nM.
